Values quoted from earlier work as cited in US10076577B2, “Compositions and methods for treating endocrine, gastrointestinal or autoimmune disorders” (priority 2010, dated 2018).

Settings: in vivo

Glucagon-like peptide-1 [GLP-1]
half-life in the blood: a few minutes
